Measurements published in the MegaScale stability set (Tsuboyama et al. 2023).

B1: HEEH_KT_rd6_3632 (parent)
chain: DAEELIELVERALKEGREIILLGVRITSEEAGKWFIEWIRRFL

Variants of: B1
Test: folding stability dG (cDNA display proteolysis); higher = more stable
Details: PBS, room temperature

Folding stability dG [kcal/mol]: each site, then its substitutions
I6: T 3.25 | Q 3.16 | N 3.11 | P 3.08 | M 3.3 | R 3.38 | V 3.48 | Y 3.38 | S 3.18 | W 3.99
L8: Y 3.49 | K 3.46 | N 2.93 | I 3.61 | S 3.08 | T 3.28 | F 3.77 | H 3.26 | W 3.7 | R 3.53 | M 3.69 | A 3.47 | G 3.03 | Q 3.49 | E 3.29 | D 2.92 | P 2.77 | V 3.26
R11: V 3.37 | Y 3.15 | I 3.62 | W 3.66 | H 3.45 | D 3.28 | E 3.38 | T 3.62 | L 3.47 | S 3.32 | G 3.19 | N 3.51 | M 3.41 | F 3.16 | K 3.65 | A 3.52 | Q 3.54 | P 3.08
V9: F 3.37 | S 2.75 | Y 2.87 | D 2.93 | T 3.09 | A 3.19 | L 3.59 | I 3.79 | R 2.87 | M 3.45 | K 2.75 | Q 2.7 | N 2.91 | P 2.93 | W 3.15 | E 2.87 | C 4.04 | G 2.81 | H 2.85
L13: V 3.54 | G 2.96 | R 3.1 | T 3.25 | N 2.88 | Y 3.28 | M 3.67 | H 2.99 | D 2.97 | W 3.43 | F 3.42 | K 3.07 | I 3.87 | P 2.88 | C 4.96 | Q 2.95 | A 3.14 | E 2.96 | S 3.08
E10: T 3.92 | L 4.16 | H 3.78 | C 4.65 | A 3.63 | S 3.62 | P 2.64 | W 4.21 | K 3.93 | G 3.28 | Q 3.83 | Y 3.81 | V 3.99 | N 3.82 | D 3.41 | F 3.69 | M 3.84 | R 4.03 | I 4.3
A12: I 3.73 | Q 3.17 | E 3.09 | V 3.55 | D 2.84 | M 3.56 | S 3.31 | K 3.08 | R 3.17 | L 3.74 | T 3.3 | G 3.21 | Y 3.33 | N 3.13 | F 3.42 | H 3.35 | P 2.88 | W 3.76
E15: D 3.7 | A 3.7 | G 3.31 | M 3.68 | I 3.62 | F 3.64 | H 3.54 | L 3.58 | K 3.45
E7: P 3.1 | T 3.82 | A 3.99 | V 3.74 | H 3.84 | D 3.7 | Y 3.77 | L 3.91 | N 3.89 | S 3.88 | M 3.82 | F 3.74 | Q 3.79 | K 4.05 | G 3.89 | R 4.18 | C 4.46 | I 3.79 | W 3.83
K14: L 3.79 | R 3.86 | H 3.49 | F 3.39 | M 3.48 | E 3.54 | I 3.6 | S 3.62 | P 3.27 | D 3.25 | W 3.5 | G 3.5 | N 3.52 | T 3.42 | A 3.73 | Q 3.56 | Y 3.31 | V 3.5
